Measurements from IntAct's records for PubMed 29892012.

B1: Coiled-coil alpha-helical rod protein 1 (Homo sapiens), Q8TD31 (parent)
chain: MFPPSGSTGLIPPSHFQARPLSTLPRMAPTWLSDIPLVQPPGHQDVSERRLDTQRPQVTMWERDVSSDRQEPGRRGRSWGLEGSQALSQQAEVIVRQLQELRRLEEEVRLLRETSLQQKMRLEAQAMELEALARAEKAGRAEAEGLRAALAGAEVVRKNLEEGSQRELEEVQRLHQEQLSSLTQAHEEALSSLTSKAEGLEKSLSSLETRRAGEAKELAEAQREAELLRKQLSKTQEDLEAQVTLVENLRKYVGEQVPSEVHSQTWELERQKLLETMQHLQEDRDSLHATAELLQVRVQSLTHILALQEEELTRKVQPSDSLEPEFTRKCQSLLNRWREKVFALMVQLKAQELEHSDSVKQLKGQVASLQEKVTSQSQEQAILQRSLQDKAAEVEVERMGAKGLQLELSRAQEARRRWQQQTASAEEQLRLVVNAVSSSQIWLETTMAKVEGAAAQLPSLNNRLSYAVRKVHTIRGLIARKLALAQLRQESCPLPPPVTDVSLELQQLREERNRLDAELQLSARLIQQEVGRAREQGEAERQQLSKVAQQLEQELQQTQESLASLGLQLEVARQGQQESTEEAASLRQELTQQQELYGQALQEKVAEVETRLREQLSDTERRLNEARREHAKAVVSLRQIQRRAAQEKERSQELRRLQEEARKEEGQRLARRLQELERDKNLMLATLQQEGLLSRYKQQRLLTVLPSLLDKKKSVVSSPRPPECSASAPVAAAVPTRESIKGSLSVLLDDLQDLSEAISKEEAVCQGDNLDRCSSSNPQMSS
partner: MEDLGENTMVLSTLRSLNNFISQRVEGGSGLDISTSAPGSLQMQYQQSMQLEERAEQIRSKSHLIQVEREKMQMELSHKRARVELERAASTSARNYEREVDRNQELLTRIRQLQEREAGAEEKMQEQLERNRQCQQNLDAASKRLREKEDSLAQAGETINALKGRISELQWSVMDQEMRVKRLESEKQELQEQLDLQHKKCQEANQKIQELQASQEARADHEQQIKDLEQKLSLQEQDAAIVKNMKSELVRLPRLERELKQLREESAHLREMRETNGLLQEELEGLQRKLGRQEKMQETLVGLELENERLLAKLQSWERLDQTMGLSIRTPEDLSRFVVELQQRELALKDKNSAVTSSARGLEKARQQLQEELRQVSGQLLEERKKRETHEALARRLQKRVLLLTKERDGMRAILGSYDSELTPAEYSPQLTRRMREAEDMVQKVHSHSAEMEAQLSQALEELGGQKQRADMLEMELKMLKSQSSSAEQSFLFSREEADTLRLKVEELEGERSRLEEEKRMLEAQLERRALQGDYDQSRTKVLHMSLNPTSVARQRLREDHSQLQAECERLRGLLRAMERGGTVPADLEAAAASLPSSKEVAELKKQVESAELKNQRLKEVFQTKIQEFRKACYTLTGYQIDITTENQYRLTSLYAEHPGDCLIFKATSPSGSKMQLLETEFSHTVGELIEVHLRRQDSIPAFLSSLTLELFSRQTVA
B2: Coiled-coil alpha-helical rod protein 1 (Homo sapiens), Q8TD31 (parent)
chain: B1 chain
partner: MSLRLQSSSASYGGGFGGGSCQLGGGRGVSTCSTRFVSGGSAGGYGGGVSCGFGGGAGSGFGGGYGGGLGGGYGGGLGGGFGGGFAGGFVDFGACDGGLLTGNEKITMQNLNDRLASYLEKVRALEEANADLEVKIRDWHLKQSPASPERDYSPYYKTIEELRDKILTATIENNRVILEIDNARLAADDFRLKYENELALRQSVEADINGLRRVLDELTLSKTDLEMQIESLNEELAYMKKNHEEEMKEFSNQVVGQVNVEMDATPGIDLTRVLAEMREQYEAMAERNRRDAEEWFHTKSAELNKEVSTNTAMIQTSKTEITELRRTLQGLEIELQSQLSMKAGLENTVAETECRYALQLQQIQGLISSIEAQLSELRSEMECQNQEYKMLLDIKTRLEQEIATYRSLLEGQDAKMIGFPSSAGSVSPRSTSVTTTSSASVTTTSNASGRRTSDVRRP
B3: Coiled-coil alpha-helical rod protein 1 (Homo sapiens), Q8TD31 (parent)
chain: B1 chain
partner: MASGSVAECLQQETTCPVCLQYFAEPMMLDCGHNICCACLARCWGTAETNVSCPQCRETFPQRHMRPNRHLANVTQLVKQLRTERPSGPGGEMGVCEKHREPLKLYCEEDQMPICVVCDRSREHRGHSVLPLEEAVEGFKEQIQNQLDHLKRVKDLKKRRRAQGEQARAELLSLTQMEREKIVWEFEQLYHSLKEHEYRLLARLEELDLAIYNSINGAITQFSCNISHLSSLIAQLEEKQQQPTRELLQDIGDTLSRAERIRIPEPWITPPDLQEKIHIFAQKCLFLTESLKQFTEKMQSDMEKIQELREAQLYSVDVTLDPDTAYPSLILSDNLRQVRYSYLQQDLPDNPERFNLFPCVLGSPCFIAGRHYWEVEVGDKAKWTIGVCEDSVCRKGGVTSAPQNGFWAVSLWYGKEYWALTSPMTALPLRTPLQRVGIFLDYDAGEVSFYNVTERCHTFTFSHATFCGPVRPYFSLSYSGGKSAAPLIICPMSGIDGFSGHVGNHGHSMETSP
B4: Coiled-coil alpha-helical rod protein 1 (Homo sapiens), Q8TD31 (parent)
chain: B1 chain
partner: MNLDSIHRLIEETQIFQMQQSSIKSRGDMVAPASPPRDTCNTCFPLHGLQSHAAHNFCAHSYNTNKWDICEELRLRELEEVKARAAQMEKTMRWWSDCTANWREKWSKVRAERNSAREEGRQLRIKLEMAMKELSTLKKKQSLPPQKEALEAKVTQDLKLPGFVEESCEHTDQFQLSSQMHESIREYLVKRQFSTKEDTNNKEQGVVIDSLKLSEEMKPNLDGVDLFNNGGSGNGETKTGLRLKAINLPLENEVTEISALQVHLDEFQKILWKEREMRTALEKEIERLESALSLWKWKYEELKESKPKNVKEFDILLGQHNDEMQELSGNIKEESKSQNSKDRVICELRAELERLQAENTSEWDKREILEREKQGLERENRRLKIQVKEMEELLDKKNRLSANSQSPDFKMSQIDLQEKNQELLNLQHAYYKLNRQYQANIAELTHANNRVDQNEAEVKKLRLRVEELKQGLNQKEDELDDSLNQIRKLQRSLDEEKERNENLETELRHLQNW

Variants of: B1
Settings: with md1l1_human MAD1L1, Q9Y6D9

| Variant | effect of a mutation on the interaction |
| --- | --- |
| W337R | disrupting interaction strength |

Variants of: B2
Settings: with KRT13, P13646

| Variant | effect of a mutation on the interaction |
| --- | --- |
| W337R | disrupting interaction strength |

Variants of: B3
Settings: with tri27_human TRIM27, P14373

| Variant | effect of a mutation on the interaction |
| --- | --- |
| W337R | disrupting interaction strength |

Variants of: B4
Settings: with CCDC102B

| Variant | effect of a mutation on the interaction |
| --- | --- |
| W337R | disrupting interaction strength |
